These results are taken from patent US20200317768A1 (published 2020).

Holding throughout (experiment): SPR; FcgR bound per captured antibody, normalized to SG1
On the technique in general: Surface plasmon resonance follows binding to a sensor surface in real time, without labels.

Experiment [1] has as its target T1, cynomolgus monkey FcγRIIa2 extracellular domain, C-terminal His-tag (cynomolgus monkey).
T1 construct: also called cyno FcγRIIa2; FcgRIIa2
T1 chain: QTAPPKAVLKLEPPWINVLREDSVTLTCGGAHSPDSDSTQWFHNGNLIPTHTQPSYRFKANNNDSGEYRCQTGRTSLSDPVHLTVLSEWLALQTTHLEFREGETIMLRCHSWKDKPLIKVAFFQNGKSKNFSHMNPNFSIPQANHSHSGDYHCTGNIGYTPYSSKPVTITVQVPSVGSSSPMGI
As to the method: (§1) The kinetic analysis of interactions between these antibodies and FcγR was carried out using BIACORE® T200 or BIACORE® 4000 (GE Healthcare). HBS-EP+ (GE Healthcare) was used as the running buffer, and the measurement temperature was set to 25° C. A chip produced by immobilizing Protein A. Protein A/G or mouse anti-human IgG kappa light chain (BD Biosciences) onto a Series S Sensor Chip CM4 or CM5 (GE Healthcare) by the amine-coupling method was used. […] After the measurement, the antibody captured on the chip was washed off by allowing reaction with 10 mM glycine-HCl, pH1.5 and 25 mM NaOH so that the chip was regenerated and used repeatedly. The sensorgrams obtained as measurement results were analyzed by the 1:1 Langmuir binding model using the BIACORE® Evaluation Software to calculate the binding rate constant ka (L/mol/s) and dissociation rate constant kd (l/s), and the dissociation constant KD (mol/L) was calculated from these values. […] Regarding such interactions, KD values were calculated using the following 1:1 binding model described in BIACORE® T100 Software Handbook BR1006-48 Edition AE.
(§2) The value of the amount of FcγR binding was obtained by dividing the amount of FcγR bound by the amount of each antibody captured.

The target in experiment [2] is T2, cynomolgus monkey FcγRIIa1 extracellular domain, C-terminal His-tag (cynomolgus monkey).
T2 construct: also called cyno FcγRIIa1; FcgRIIa1
T2 chain: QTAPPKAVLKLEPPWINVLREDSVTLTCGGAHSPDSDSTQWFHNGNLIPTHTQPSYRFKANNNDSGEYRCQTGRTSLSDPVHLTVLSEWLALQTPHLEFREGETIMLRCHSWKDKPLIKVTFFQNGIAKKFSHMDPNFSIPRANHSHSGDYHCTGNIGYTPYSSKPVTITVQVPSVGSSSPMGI
As to the method: as §1, §2

Experiment [3] deals with T3, cynomolgus monkey FcγRIIb extracellular domain, C-terminal His-tag (cynomolgus monkey).
T3 construct: also called cyno FcγRIIb; cynoFcγRIIb
T3 chain: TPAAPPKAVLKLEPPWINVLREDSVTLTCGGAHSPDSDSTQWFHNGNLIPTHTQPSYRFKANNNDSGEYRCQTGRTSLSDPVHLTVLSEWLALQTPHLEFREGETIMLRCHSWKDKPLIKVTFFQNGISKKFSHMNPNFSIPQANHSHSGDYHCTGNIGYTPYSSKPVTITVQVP
As to the method: as §1, §2

In experiment [4] the target is T4, cynomolgus monkey FcγRIIa3 extracellular domain, C-terminal His-tag (cynomolgus monkey).
T4 construct: also called cyno FcγRIIa3; FcgRIIa3
T4 chain: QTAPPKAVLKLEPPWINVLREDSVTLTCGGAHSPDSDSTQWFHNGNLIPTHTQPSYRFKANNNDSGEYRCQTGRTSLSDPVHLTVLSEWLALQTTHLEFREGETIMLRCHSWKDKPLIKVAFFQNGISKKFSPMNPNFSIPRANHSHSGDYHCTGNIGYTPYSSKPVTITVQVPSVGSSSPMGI
As to the method:
as §1, §2

Experiment [5] addresses T5, cynomolgus monkey FcγRIIIaS extracellular domain, C-terminal His-tag (cynomolgus monkey, UniProt Q8SPW2 21-206 at identity 1.00)).
T5 construct: also called cyno FcγRIIIaS; FcgRIIIaS
T5 chain: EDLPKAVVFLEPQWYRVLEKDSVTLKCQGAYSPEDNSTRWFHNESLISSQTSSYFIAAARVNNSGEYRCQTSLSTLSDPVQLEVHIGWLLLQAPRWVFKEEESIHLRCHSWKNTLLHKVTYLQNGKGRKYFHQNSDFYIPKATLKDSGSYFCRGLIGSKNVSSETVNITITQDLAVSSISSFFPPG
As to the method: as §1, §2

B1: M103205H795-SG176/M103202L889-SK1 (antibody, human IgG1, kappa)
heavy: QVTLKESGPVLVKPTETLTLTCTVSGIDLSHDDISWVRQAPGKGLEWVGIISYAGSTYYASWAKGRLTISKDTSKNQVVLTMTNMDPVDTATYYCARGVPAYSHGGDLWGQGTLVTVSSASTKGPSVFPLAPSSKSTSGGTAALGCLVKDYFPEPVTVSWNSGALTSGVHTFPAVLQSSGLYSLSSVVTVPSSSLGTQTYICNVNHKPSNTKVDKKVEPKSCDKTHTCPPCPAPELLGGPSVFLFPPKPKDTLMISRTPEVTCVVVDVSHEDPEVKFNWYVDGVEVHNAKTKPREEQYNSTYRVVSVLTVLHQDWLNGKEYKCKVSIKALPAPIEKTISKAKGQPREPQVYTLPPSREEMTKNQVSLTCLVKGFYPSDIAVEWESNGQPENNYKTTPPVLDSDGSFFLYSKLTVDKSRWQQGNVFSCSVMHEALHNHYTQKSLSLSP
light: DIVMTQSPATLSLSPGERATLSCTSSQSVYHANWLSWFQQKPGQPPKLLIYWASTLAYGVPSRFSGSGSGTDFTLTISSLQPEDAATYYCAGGYGGGRYAFGQGTKVEIKRTVAAPSVFIFPPSDEQLKSGTASVVCLLNNFYPREAKVQWKVDNALQSGNSQESVTEQDSKDSTYSLSSTLTLSKADYEKHKVYACEVTHQGLSSPVTKSFNRGEC
notes: also called N325I
As for B1, the “amount of FcgR binding (SG1 = 100)” value in experiment [1] was 15 SG1 = 100; in experiment [2] it was 14 SG1 = 100; in experiment [3] it was 16 SG1 = 100; in experiment [4] it was 19 SG1 = 100; in experiment [5] it was 20 SG1 = 100.

B2: M103205H795-SG177/M103202L889-SK1 (antibody, human IgG1, kappa)
heavy: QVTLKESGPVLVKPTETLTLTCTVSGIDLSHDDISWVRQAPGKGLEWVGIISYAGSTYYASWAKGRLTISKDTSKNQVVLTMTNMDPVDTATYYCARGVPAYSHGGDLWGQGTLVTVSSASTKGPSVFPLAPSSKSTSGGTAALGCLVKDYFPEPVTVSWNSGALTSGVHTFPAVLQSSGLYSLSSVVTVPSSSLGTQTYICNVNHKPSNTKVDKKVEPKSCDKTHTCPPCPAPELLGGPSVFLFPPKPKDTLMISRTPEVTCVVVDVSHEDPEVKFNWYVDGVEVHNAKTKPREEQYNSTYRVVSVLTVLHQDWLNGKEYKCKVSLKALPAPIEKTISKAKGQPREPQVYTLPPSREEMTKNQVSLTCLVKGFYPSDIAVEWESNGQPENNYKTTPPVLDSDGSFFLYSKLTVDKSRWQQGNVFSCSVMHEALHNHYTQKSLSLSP
light: DIVMTQSPATLSLSPGERATLSCTSSQSVYHANWLSWFQQKPGQPPKLLIYWASTLAYGVPSRFSGSGSGTDFTLTISSLQPEDAATYYCAGGYGGGRYAFGQGTKVEIKRTVAAPSVFIFPPSDEQLKSGTASVVCLLNNFYPREAKVQWKVDNALQSGNSQESVTEQDSKDSTYSLSSTLTLSKADYEKHKVYACEVTHQGLSSPVTKSFNRGEC
notes: also called N325L
B2: the “amount of FcgR binding (SG1 = 100)” value amounted to 15 SG1 = 100 in experiment [1]; 15 SG1 = 100 in experiment [2]; 18 SG1 = 100 in experiment [3]; 25 SG1 = 100 in experiment [4]; 21 SG1 = 100 in experiment [5].
